Source: publication PMC2948513 (PLoS ONE, 2010)
Non-standard residues stand in square brackets, D forms with d. No end group written: not given here. *: point of attachment. Biotin = O=C1N[C@H]2[C@H](CS[C@H]2CCCCC(=O)*)N1; pS = N[C@@H](COP(=O)(O)O)C(=O)O

Legend:
[1] = target: PTEN C-terminal domain, 367-403 (UniProt P60484); assay: biotin-peptide streptavidin-agarose pull-down, PTEN blot; conditions: reference: non-phosphorylated NEP-NT peptide; sites S6
[2] = target: PTEN C-terminal domain, 367-403 (UniProt P60484); assay: SPR, peptide on streptavidin chip; conditions: reference: non-phosphorylated NEP-NT peptide; sites S6
[3] = target: Ezrin N-terminus, 1-310 (UniProt P15311); assay: SPR, peptide on streptavidin chip; conditions: reference: non-phosphorylated NEP-NT peptide; sites S6
[4] = target: Ezrin N-terminus, 1-310 (UniProt P15311); assay: biotin-peptide streptavidin-agarose pull-down, MBP blot; conditions: reference: non-phosphorylated NEP-NT peptide; sites S6
[5] = target: T1, fusion protein of the maltose binding protein (MBP) and the N-terminus of Ezrin (amino acids 1-310) (human, UniProt P15311 1-310); assay: SPR; Biacore3000; biotin-labeled NEP peptides coupled to streptavidin (SA) chip to ~1000 RU; HBS-P buffer (10 mM HEPES pH 7.4, 150 mM NaCl, 0.005% Surfactant P20), 25°C, 30 µl/min; reference surface without peptide subtracted; MBP Ezrin-NT 0.05-0.8 µM, GST PTEN-CT 1.6-12.8 µM; conditions: both partners purified
T1 construct: Ezrin, human, N-terminus, amino acids 1-310; Cloned into the EcoRI/SalI sites of pMAL-c2; also called MBP-Ezrin-NT; MBP Ezrin-NT; source: E. coli DH5α, precipitated by Amylose-resin

“Neprilysin (NEP, CD10) N-terminal cytoplasmic domain, 2-23 (from UniProt P08473) pSer6 peptide (pNEP-NT)” was tested, and the “binding against the reference” value [1] was “weaker”, the KD [2] was “weaker; reference ∼0,71” and the KD [3] was “same; reference ∼5.8”. The “binding against the reference” value [4] was “same”.

B1: synthetic biotin-labeled peptide representing the N-terminal cytoplasmic domain (aa 2-23) of human NEP with serine 6 phosphorylated (peptide)
peptide: GKSE[pS]QMDITDINTPKPKKKQRK(Biotin)
notes: neprilysin (NEP, neutral endopeptidase 24.11, CD10), human, N-terminal cytoplasmic domain, amino acids 2-23, serine 6 phosphorylated; C-terminal lysine that carries the biotin, named in words only; It is surmised that the biotinylated lysine is an extra residue after aa 23; also called pNEP-NT; phosphorylated NEP-NT; source: synthetic peptide (Peptide Specialty Labs, Heidelberg)
In the case of B1, the Kd [5] is reported as roughly 5.9 nM.

B2: synthetic biotin-labeled peptide representing the N-terminal cytoplasmic domain (aa 2-23) of human NEP, non-phosphorylated (peptide)
peptide: GKSESQMDITDINTPKPKKKQRK(Biotin)
notes: neprilysin (NEP, neutral endopeptidase 24.11, CD10), human, N-terminal cytoplasmic domain, amino acids 2-23; C-terminal lysine that carries the biotin, named in words only; It is surmised that the biotinylated lysine is an extra residue after aa 23; also called NEP-NT; non-phosphorylated NEP-NT; source: synthetic peptide (Peptide Specialty Labs, Heidelberg)
B2 was tested, and the Kd [5] was roughly 5.8 nM.
